System: MS2 coat protein
Experiment: apparent KD of MS2 coat protein; higher = weaker reporter binding
Settings: Eterna round: R107
Procedure, shortened: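 Titrations with SNAP-549-labelled MS2 coat protein ran in twofold steps from 0.7 or 1.5 nM to 3 µM, each step taking 0.8–1.5 h at the start and 10–20 min toward the end. The targets were designed RNA switches transcribed on-chip from Illumina sequencing clusters, held in 100 mM Tris-HCl pH 7.5, 80 mM KCl, 4 mM MgCl2, without or with constant ligand. Apparent KD was taken per design as the median of normalised cluster binding-curve fits.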

[1] = input ligand: theophylline 20 uM
[2] = input ligand: tryptophan 2.4 mM
[3] = input ligand: theophylline 2 mM

Row | Sequence | apparent KD of MS2 coat protein (input ligand: arginine 13.2 mM) | apparent KD of MS2 coat protein [1] | apparent KD of MS2 coat protein [2] | apparent KD of MS2 coat protein [3] | apparent KD of MS2 coat protein (input ligand: none)
1 | UAGGUGAUCUUCAACGGAAAACGUUGUGAUACCAGCCAACAAUACGGCCCUUGGCAGCACAUGAGGAUCACCCAUGUGUACACCG [Vetizaatdi] | 25.6 nM | 48.7 nM | 30.6 nM |  | 
2 | UAUAAAAUAACAGAUACCAGCGUGUUAUAAAACAUGAGGAUCACCCAUGUAGUGAUCAAGCGCCCUUGGCAGCUGGUAUUUUAUG [7.C] | 92.3 nM | 166 nM | 58.1 nM |  | 
3 | UAUAAUAACUCGGCCGCCACUGGCACAUGAGGAUCACCCAUGUCUAUAUAUAAUAUAUAGUUGCACAGGACCGGGAGAUAUAUAU [Exclusion - Tryptophan B] | 10.5 nM | 12.5 nM |  | 10.5 nM | 
4 | UAUAUAUAUAGUGAUACCAGCAGAGAAAACGUUUAUCCUAACAUGAGGAUCACCCAUGUAUGCCCUUGGCAGCGUUAUAUAUAUA [8.E] | 21.2 nM | 29.1 nM | 21.9 nM |  | 
5 | UAUAUAUAUAUGGAUACCAGCAGAGAAAACGUUUAUCCUAACAUGAGGAUCACCCAUGUAUGCCCUUGGCAGCUGUGUAUAUAUA [8.H] | 16.7 nM | 26.5 nM | 19.2 nM |  | 
6 | UAUAUAUAUAUUGAUACCAGCAGAGAAAACAUAUAUCCUAACAUGAGGAUCACCCAUGUAUGCCCUUGGCAGCGAUAUAUAUAUA [8.A] | 24.9 nM | 28.1 nM | 23.5 nM |  | 
7 | UAUAUAUAUAUUGAUACCAGCAGAGAAAACGUUUAUCCUAACAUGAGGAUCACCCAUGUAUGCCCUUGGCAGCGAUAUAUAUAUA [8.C] | 22.2 nM | 31.3 nM | 21.7 nM |  | 
8 | UAUCGUCAGACGGCCGCCACUAGAACAUGAGGAUCACCCAUGUAAGUGGCUGGUUCAUGGGUGUCUAGGACCGGGUCUGACGAAU [(Trp1)-(Ms2)-(T)'-(M)'-(Trp2)_Design20] | 14.8 nM | 21.2 nM |  | 17.6 nM | 
9 | UAUGUCGCCGAAGAUACCAGCCUGGCAAGCAACAUGAGGAUCACCCAUGUAAUUACUUAUGGCCCUUGGCAGCUUCAAAUAGAGC [theeternabot_sameState_MS2_Theo_B_42] | 10.8 nM | 15.5 nM | 12.4 nM |  | 
10 | UAUUUGGUGCGCGAGCGCUGGAUAAUUGAUACCAGUGAAGAAGAGCGCCCUUGGCAGCGAAUCCUAACAUGAGGAUCACCCAUGU [5.R] | 33.1 nM | 54.1 nM | 38.7 nM |  | 
11 | UCACAUGAGGAUCACCCAUGUAAAGUUGAAGGAGCGAUCAUUAGGUCAGGUAGGUCGCAACACAUGAGGAUCACCCAUGUUGUCC [DOUBLE!!! :-D] | 25.7 nM | 49.9 nM | 38.3 nM | 47.1 nM | 40.8 nM
12 | UCAGUGCAAGGAAGGAGCGGGUACAUGAGGAUCACCCAUGUGCAAGUGGUGAGCGUCCGUGCCCAGGUAGGUCGCCUAGCCUGGU [Quisso] | 56 nM | 180 nM | 101 nM | 149 nM | 109 nM
13 | UCAUGCAGGUCGGCCGCCACUACACACAUGAGGAUCACCCAUGUAGUUACUGGGUGAAGUGGCAGUAGGACCGGGACCUGCACAU [Brourdmod16] | 253 nM | 369 nM | 460 nM | 452 nM | 607 nM
14 | UCCAGACAUGAGGAUCACCCAUGUUGUGAUACCAGAACCGUGGAGUUCCCUUGGCAGCACUAAGAAGUUCCUGGAUCAGCUAGCG [theeternabot_sameState_MS2_Theo_A_9] | 29.9 nM | 36.2 nM | 30 nM |  | 

From the supplement of paper PMC9170038
